Source: US9347942B2, “Ultrasensitive cell based sensors and uses thereof” (CANVAX BIOTECH SL, priority 2010, dated 2016)

Tests used:
Assay type in all cases: cell-based
SSTR2 = target: T1, SSTR2 (Homo sapiens, UniProt P30874); assay: Agonist-induced exocytosis of granzyme B, sandwich ELISA (Example 9); details: agonist 10 uM, 60 minutes
T1 construct: the entire human GPCR; mouse immunoglobulin kappa signal peptide (N); expressed in transfected cells
Source text: (§1) Human granzyme B was selected as reporter, chimeric promoter of hCMV-MoLV5′LTR as promoter for reporter expression, RBL-2H3 as hemopoyetic cells with professional regulated exocytosis and several GPCRs as exocytosis modulators under the control of Moloney Leukaemia virus 5′-LTR (MoMLV5′LTR, SEQ ID NO:3) as promoter for expression of exocytosis modulators. […] Vectors for expression of granzyme B had the chimeric promoter of hCMV-MoLV5′LTR-GranzymeB-IRES-NGFR with hygromycin resistance for stable transfections. Vectors for GPCR were electroporated first, cells were selected with neomycin at 500 ug/mL for about two weeks and cells were analysed by flow cytometry (Guava Technologies, USA) with anti-cmyc tag antibody (anti-cmyc-FITC, clone 9E10, Sigma-Aldrich, USA) for surface expression. Positive cells were separated by magnetic separation using anti-cmyc monoclonal antibody conjugated to biotin (Miltenyi Biotec, Germany) and streptavidin-MACS (Miltenyi Biotec, Germany). After growing positive fraction of cells was again analysed by flow cytometry with the anti-cmyc tag antibody. Positive cells were individually electroporated with the vector for expression human granzyme B using a microporator (Digital Bio Technology, South Korea) and after 48 hours hygromycin at 1500 ug/mL and neomycin at 500 ug/mL were added to culture for selection. After selection for about 2 weeks cells were analysed by flow cytometry (Guava Technologies, USA) with an antibody against NGFR coupled to FITC. Positive population where magnetically separated by MACS using anti-NGFR-MACS sup.R (Miltenyi Biotec, Germany). Sorted populations were again analysed again by flow cytometry to check both the expression of the GPCR with the anti-cmyc tag antibody and with anti-NGFR antibody to check granzyme B expression. […] GPCRs included were: SSTR2 and CHRM2 as alpha-i coupled GPCRs; AGTR1 and bradykinin type B1 receptor (BDKRB1) as alpha-q coupled GPCRs and AVPR2 as alpha-s coupled GPCR. […] Cells were seeded the night before experiment at 100.000 cells per well of a 96-well microplate in 100 uL of complete cell culture medium. Next day cells were washed with HBSS buffer and incubated with the ligand (agonist) at 10 uM of each GPCR in 30 uL of HBSS buffer at 37 Celsius degrees for 60 minutes and after centrifugation at 400 g for 5 minutes supernatants were analysed for human granzyme B protein by a sandwich ELISA specific for human granzyme B (Ucytech, Netherlands).

AGTR1 = target: T2, AGTR1 (Homo sapiens, UniProt P30556); assay: as above; details: agonist 10 uM, 60 minutes
T2 construct: the entire human GPCR; mouse immunoglobulin kappa signal peptide (N); expressed in transfected cells
T2 sequence (P30556 2-359): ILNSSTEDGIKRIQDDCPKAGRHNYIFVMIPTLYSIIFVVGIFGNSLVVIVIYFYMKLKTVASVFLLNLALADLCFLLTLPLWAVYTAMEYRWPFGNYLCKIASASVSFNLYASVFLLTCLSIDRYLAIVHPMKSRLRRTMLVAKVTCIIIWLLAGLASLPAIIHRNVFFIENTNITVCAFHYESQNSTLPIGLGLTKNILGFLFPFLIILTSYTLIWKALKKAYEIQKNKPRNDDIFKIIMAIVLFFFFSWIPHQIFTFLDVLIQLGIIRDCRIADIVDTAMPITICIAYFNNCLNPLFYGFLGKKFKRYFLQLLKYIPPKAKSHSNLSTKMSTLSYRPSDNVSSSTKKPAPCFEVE
Source text: as §1

[1] = target: T3, bradykinin type B1 receptor (BDKRB1) (Homo sapiens, UniProt P46663); assay: as above; details: agonist 10 uM, 60 minutes
T3 construct: the entire human GPCR; mouse immunoglobulin kappa signal peptide (N); expressed in transfected cells
T3 sequence (P46663 5-353 limits assumed): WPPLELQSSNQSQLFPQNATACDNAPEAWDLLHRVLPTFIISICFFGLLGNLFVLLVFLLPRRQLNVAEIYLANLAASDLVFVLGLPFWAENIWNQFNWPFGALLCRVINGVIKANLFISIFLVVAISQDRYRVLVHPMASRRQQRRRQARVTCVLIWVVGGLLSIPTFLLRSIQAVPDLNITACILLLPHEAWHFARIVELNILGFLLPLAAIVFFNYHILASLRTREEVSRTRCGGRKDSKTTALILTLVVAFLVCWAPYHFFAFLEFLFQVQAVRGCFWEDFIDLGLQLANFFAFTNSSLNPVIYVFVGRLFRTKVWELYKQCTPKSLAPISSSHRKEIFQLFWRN
Source text: as §1

[2] = target: T4, bradykinin type B1 receptor (Homo sapiens, UniProt P46663); assay: Exocytosis time optimisation, granzyme B FRET readout (Example 12); details: agonist 10 uM
T4 construct: the entire human GPCR; mouse immunoglobulin kappa signal peptide (N); expressed in transfected cells
T4 sequence (P46663 5-353 limits assumed): T3 sequence (P46663 5-353 limits assumed)
Source text: An experiment was designed to optimize assay conditions such as: exocytosis time, number of steps needed for assay and uses of cells in suspension. Cells developed in example #9 expressing both a GPCR and human granzyme B were used in this example for optimization of exocytosis time. GPCRs included were CHRM2 (an alpha-i coupled GPCR) and bradykinin type B1 receptor (an alpha-q coupled GPCR). Carbachol and kallinin from Sigma-Aldrich (USA) were used as ligands for CHRM2 and bradykinin type B1 receptor, respectively and used at 10 uM final concentration in HBSS buffer. Cells were seeded the night before experiment at 20.000 cells per well of a 96-well microplate in 100 uL of complete cell culture medium. Next day cells were washed with HBSS buffer and incubated with the ligand (agonist) at 10 uM of each GPCR in 30 uL of HBSS buffer at 37 Celsius degrees for 5, 15, 30 or 60 minutes and after centrifugation at 400 g for 5 minutes supernatants were analysed for human granzyme B activity using FAM-[…]-TAMRA at 1 uM final concentration as the human granzyme B substrate. Released FAM was measured by excitation at 485 nm and emission at 535 nm in a BMG Labtech microplate fluorimeter in 96 well microplates. Microplates were incubated at 37 Celsius degrees on the reader and were kinetically read at 0, 15, 30, 45 and 60 minutes. Control wells with substrate only in HBSS buffer were included to subtract autofluorescence of substrates to both cells treated with ligands and to cells treated with HBSS buffer only. […] The signal to background is lower at longer exocytosis times due to the higher increase in basal release than the increase in specific signal after the first 5 to 15 minutes. Thus, any exocytosis time from probably less than 5 minutes to at least 60 minutes may be used for the methods of the present invention but longer exocytosis times produce a sensor with a lower signal to background, exocytosis is nearly complete at 5 minutes and signal to background is good for a robust sensor.

[3] = 100.000 cells, dilution 2250, after subtraction of 0.2 blank

T1 sequence (P30874 2-369): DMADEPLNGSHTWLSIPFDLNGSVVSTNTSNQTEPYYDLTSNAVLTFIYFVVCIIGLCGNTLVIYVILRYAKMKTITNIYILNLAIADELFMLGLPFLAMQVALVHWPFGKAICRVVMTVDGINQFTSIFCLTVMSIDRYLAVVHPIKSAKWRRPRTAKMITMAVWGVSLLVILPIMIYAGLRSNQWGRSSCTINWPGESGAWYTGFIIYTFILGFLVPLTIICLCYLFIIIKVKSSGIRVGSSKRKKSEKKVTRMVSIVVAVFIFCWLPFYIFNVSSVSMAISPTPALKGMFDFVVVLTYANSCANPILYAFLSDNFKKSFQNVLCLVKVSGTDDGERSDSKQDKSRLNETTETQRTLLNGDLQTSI

`CC(C)[C@@H]1NC(=O)[C@H](CCCCN)NC(=O)[C@@H](Cc2c[nH]c3ccccc23)NC(=O)[C@H](Cc2ccc(O)cc2)NC(=O)[C@H](C)N(C)C(=O)[C@H](Cc2ccccc2)NC1=O` [Seglitide, seglitide] was tested, and the “Absorbance at maximal dilution of ELISA tested” value (“Absorbance at maximal dilution” below) (SSTR2; [3]) was 2.4 and the “Sensitivity (minimal amount of cells needed)” value (from here on “Sensitivity”) (SSTR2; granzyme B ELISA) was under 150 cells.

angiotensin was tested, and the “Absorbance at maximal dilution” value (AGTR1; [3]) was 1.8 and the “Sensitivity” value (AGTR1; granzyme B ELISA) was under 150 cells.

With kallinin the “Absorbance at maximal dilution” value [1, 3] was 0.8, the “Sensitivity” value ([1]; granzyme B ELISA) was under 150 cells and the “exocytosis, % of maximal” value ([2]; 5 minutes, 20.000 cells) was over 90%. For the same molecule, the “signal to background (S/B)” value ([2]; medium taken at 5 to 15 minutes) was 20-22, the “signal to background (S/B)” value ([2]; medium taken at 30 minutes) was 15-17 and the “signal to background (S/B)” value ([2]; medium taken at 60 minutes) was 8-10.
